Reference: the supplement of paper PMC12042874
± gives the uncertainty stated by the source.

Assay: amyloid nucleation score (Sup35N fusion, yeast selection) (log enrichment); library NNK2; higher = more nucleation; inactive = no reads after selection
Summary of the method: (§1)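 Using DiMSum, nucleation scores were taken as the log enrichment of output over input reads, centred on the mode score of non-aggregating sequences. The input and output reads came from Illumina sequencing of plasmid inserts, with sequences under 100 input reads excluded. The yeast were psi-negative, expressed Sup35N fused to peptides of 20 random codons, were induced with 100 μM copper sulfate for 24 hours, and were grown 7 days at 30°C on medium lacking adenine and uracil.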

Substance | amyloid nucleation score
AAFQSMENCCAFCSVRRQES | -0.406 ± 0.38
AAKDSAWFHAIWVKKVRREV | 1.01 ± 0.68
AALGTDMSNWVHSRLNQERR | 0.433 ± 0.45
AAPGCFNLKFLS | -0.36 ± 0.74
AAQIHYSKYNDDVYFSFEEK | 0.283 ± 0.37
ACFHGFPIYGCLLANAMCGR | 1.33 ± 0.67
ACLFWIYARRHRLAWVVFIW | -0.487 ± 1.1
ACNWLESFIKCFICVWYRDK | 7.73 ± 0.079
ACSDGVAMECKV | -0.429 ± 0.44
ADFTWVKSHVCHMEWSR | 0.551 ± 0.42
ADGFVSSIVLT | 0.006 ± 0.24
ADRYMHSTHVDNCPYAGFTS | 0.444 ± 0.44
ADSWWSLYNIFEFSSINLNV | inactive
AEMVSANRLSKCEMTIRLWD | 3.64 ± 0.077
AERIFSQ | -1.45 ± 0.62
AEVGTPESLLEGNIDRERIP | 0.42 ± 0.36
AEYKRGKEGSPLAIWWQLDP | 2.34 ± 0.13
AEYPHAFFSDCACYHIPGSA | 0.586 ± 0.57
AFCKALCIVRRYSPPPLIVA | inactive
AFDEVSSFGGFFERCFWIKL | 5.91 ± 0.076

Substance | amyloid nucleation score
AFGFSI | -1.3 ± 0.42
AFGKACPGMCMTKFTACTNR | 0.569 ± 0.13
AFICMFVIRFDWYNMS | -0.558 ± 1
AFNATIRNAC | -0.746 ± 0.62
AFSMCSDRWIWLSCLNVEFV | 9.677 ± 0.048
AFWRLAVLFVVCRIIF | 0.13 ± 0.65
AFYCTVC | 7.346 ± 0.043
AFYKFMSEHSSAVHCDPMHD | -0.025 ± 0.76
AGFWEDEVFRV | -0.714 ± 0.48
AGMMFKR | 1.71 ± 0.37
AGSGFRSATWYRASTWMAFG | 2.93 ± 0.13
AGSSS | -0.561 ± 0.63
AHFQYRGNRAFQVWNYCGKY | 2.55 ± 0.12
AHPMEQCKIL | 0.545 ± 0.41
AHTRSAMGDMPNVNGFLKCT | inactive
AIDAFFLSV | -0.191 ± 0.26
AIMGHGLPYGTGLMEVGGAK | 5.13 ± 0.084
AITGGFSAFIRYYGVMYDVG | -0.736 ± 0.45
AIYKDRGWGATGHVFRILGR | 0.752 ± 0.57
AIYLWSF | 4.85 ± 0.054

Substance | amyloid nucleation score
AKVRLYVRGGSLLIGIRSVV | 0.555 ± 0.22
AKWRDRSETYYLYFRISVRI | -0.493 ± 1.1
ALATFVTPVAESA | 4.05 ± 0.05
ALDSNSWPYDGGMWRTT | -0.232 ± 1.1
ALFRPEYRFM | 2.64 ± 0.13
ALFVYYDIQVVGITY | -1.1 ± 0.4
ALILAVLPSKDPIRVCWYSG | 0.04 ± 0.33
ALLALTVLIYNLIDMLQVNR | 0.728 ± 0.8
ALSSVFYIDFHFDYLYDVTL | 2.72 ± 0.2
ALVCLMKSSFCTCEHLYDVR | 7.168 ± 0.044
ALWCRENFINCYIPYLQMFF | 6.219 ± 0.036
ALYRL | 0.233 ± 0.62
AMMFDVFRYLRESVISMCKG | 0.367 ± 0.54
AMNRFST | -0.975 ± 1.1
ANCCLRTWVFCRSYCYIILF | -0.014 ± 0.8
ANGSKGLVLTLNGDSKCVEC | 0.188 ± 0.25
ANKSAGVLYNAASDLRVGVR | 0.923 ± 0.55
ANPQSKLLNVSFIGTVQGWV | 3.04 ± 0.12
ANPWDRSFIVKVCRSDVVRV | 0.246 ± 0.38
ANRKRVK | 0.223 ± 0.61

Assay: amyloid nucleation score (Sup35N fusion, yeast selection) (log enrichment); library NNK3; higher = more nucleation; inactive = no reads after selection
Summary of the method: as §1

Substance | amyloid nucleation score
YYFHRFL | inactive
YYFTVLRLVVNMAIVSPCPQ | inactive
YYPQRAGYRVPVFLWIGNWR | inactive
YYQLKSHVVRDGHVWTICGS | inactive
YYSGVFPNVVGRS | inactive
YYSLWRSIIVEACRFC | inactive
YYTSYIAGNLAFNTSKFRKM | -0.347 ± 0.7
YYVIDILVW | inactive
YYYLKVHNLVSYVNAFVR | inactive
YYYSMVTTLRGAISILRNPA | inactive
